One assay concerns the target T1, HGREM1-His (ACRO) (human, UniProt O60565 25-184).
T1 construct: Lys25-Asp184 of NP_037504 with C-terminal polyhistidine tag (ACRO GR1-H52H3); they are put here; also called hGREM1 (ACRO); human gremlin (ACRO)
T1 sequence: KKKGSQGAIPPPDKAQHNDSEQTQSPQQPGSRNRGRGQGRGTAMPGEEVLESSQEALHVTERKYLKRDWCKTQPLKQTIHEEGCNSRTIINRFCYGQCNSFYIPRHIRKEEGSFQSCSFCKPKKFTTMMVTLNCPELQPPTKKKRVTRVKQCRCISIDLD
The assay is described as follows: blocking ELISA, Human Gremlin-1 binding to BMP2; column OD450. On the procedure:
In addition, the ability of serial dilutions of antibodies provided herein to block Gremlin binding to human BMP2/4/7 was also examined via ELISA. Plates were coated with recombinant human BMP2/4/7 (0.5 μg/ml) overnight and then serial dilutions of antibodies were incubated with 1 μg/ml of human Gremlin-his modified for 1 h at RT before this complex was added to coated plates and allowed to incubate for an additional hour at RT. The plates were then washed and added with anti-his HRP (GenScript). Plates were then developed with a TMB solution and stopped by adding stop solution. The plates were read on a plate reader at 450 nm. […] The chimeric anti-gremlin 1 antibodies (69H5-chi) and chimeric anti-gremlin 1 antibodies (22F1-chi) also can inhibit the binding of gremlin to BMP2 and BMP4 (see, FIG. 3E and FIG. 3F). The chimeric anti-gremlin 1 antibodies (56C11-chi) can inhibit the binding of gremlin to BMP2 (see, FIG. 3E).
(An ELISA detects its analyte on a solid surface through an enzyme-linked reagent.)

Another assay has as its target T2, DAN-his (Sinobiological) (human, UniProt P41271 17-181, limits assumed).
T2 construct: also called DAN (Sinobiological); human DAN-his
T2 sequence (looked up): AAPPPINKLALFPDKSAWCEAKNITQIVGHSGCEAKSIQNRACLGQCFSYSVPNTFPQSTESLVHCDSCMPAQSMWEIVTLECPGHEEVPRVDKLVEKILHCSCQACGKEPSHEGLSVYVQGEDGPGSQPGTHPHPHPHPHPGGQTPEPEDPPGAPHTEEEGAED
The assay is described as follows: ELISA on coated DAN-his; unit from the axis Ab(nM). On the procedure: Clear polystyrene plates (BEAVER) were coated with 100 μl/well of a 0.5 μg/ml human gremlin (ACRO) and DAN (Sinobiological) in high pH coating buffer overnight at 4° C. Then the plates were washed once on an automatic plate washer using PBS+0.1% Tween 20 (Sigma). 100 μl of block solution consisting of PBS+1% BSA+1% normal goat serum+0.5% Tween 20 (Sigma) was added to each well and incubated at room temperature for 2 hours. Then 100 ul of antibodies (hybridoma or chimeric antibody 36F5, chimeric antibody 67G11, chimeric antibody 42B9) in antibody dilution buffer containing PBS+1% BSA+1% normal goat serum+0.01% Tween 20 starting from 2 μg/ml (13.33 nM) and then 4 fold serial dilution were added to each well of the plate and incubated for 1 hours at room temperature. Afterward the plates were washed three times with 200 ul of PBS+0.1% Tween20 followed by adding 100 μl/well 1:10000 Goat anti mouse IgG-HRP or mouse anti-human IgG-HRP (abcam), and incubate for 1 hour at room temperature. They were then washed 3× with PBS+0.1% Tween20. Finally, 100 μl/well of TMB (InnoReagents) was added to each well and after 2 minutes add 50 ul of stop solution to each well. The plates were read on a Multiscan FC microplate reader (Thermo Scientific) at 450 nm.

In assay [1] the target is T3, human Gremlin N33T (C-terminal His-tag) (human, UniProt O60565 25-184).
T3 construct: culture supernatant used
T3 chain: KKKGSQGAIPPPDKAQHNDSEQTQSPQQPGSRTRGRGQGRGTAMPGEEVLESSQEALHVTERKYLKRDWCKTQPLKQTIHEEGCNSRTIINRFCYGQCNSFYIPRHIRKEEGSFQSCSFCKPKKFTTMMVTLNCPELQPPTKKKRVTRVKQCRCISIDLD
The assay is described as follows: BLI (Octet): antibody loaded on AHC sensor, supernatant of the gremlin variant as analyte. The protocol: (§1) The supernatant for Gremlin WT and mutants to be tested were added in the Association Column of the plate, 100 ul per well. Media or KD buffer was used as a reference control. Put AHC sensors in the 1st Baseline Column for 60 s to get the 1st baseline, then in the Loading Column for 300 s to capture the Gremlin antibody. After that, put the sensors in the 2nd Baseline Column for 60 s to get the 2nd baseline. Then put them in the Association Column for 300 s to let Gremlin/Gremlin Ab associate completely, put the sensors in the dissociation Column for 300 s. Analyze the group data by ForteBio (Octet96)

Assay [2] addresses T4, human Gremlin_Q27P (C-terminal His-tag) (human, UniProt O60565 25-184).
T4 construct: culture supernatant used
T4 chain: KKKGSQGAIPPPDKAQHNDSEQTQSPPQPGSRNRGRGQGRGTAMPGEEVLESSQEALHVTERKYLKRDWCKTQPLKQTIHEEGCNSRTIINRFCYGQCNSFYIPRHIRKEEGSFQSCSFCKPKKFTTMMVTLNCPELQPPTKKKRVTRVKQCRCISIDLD
The assay is described as above. On the procedure:
as §1

Broadly, the IC50 is the concentration at which inhibition is half-maximal. The EC50 is the midpoint of the concentration-response curve. Low values mean an effect from little substance, high ones a need for much substance.

B1: 36F5 (antibody, V domains shown)
VH: QVQLQQSGAELARPGASVKLSCKASGYSFTSSGIGWVKQRSGQGLEWIGEIYPRSGNTYNNEKFKGKATLTADKSSSTVYMELRSLTSEDSAVYFCVREAYSHHYYAMDYWGQGTSVTVFS
VL: DVLMTQTPLSLPVSLGGQASISCRSSQSLLHSNGNTYLEWYLQKPGQSPKLLIYKVSNRFSGVPDRLSGSGSGTDFTLKISRVEAEDLGVYYCFQGSHVPFTFGSGTKLEIN
notes: mouse hybridoma antibody; also called hybridoma 36F5
In the assay with HGREM1-His (ACRO), B1 gave an IC50 of 0.604 µg/mL. This molecule registered an EC50 in the assay with DAN-his (Sinobiological) of 0.0309 nM.

B2: 14E3 (antibody, V domains shown)
VH: QIQLVQSGPELKKPGETVKISCKTSGSTFTTYGMAWMKQAPGKGLTWMGWINTLSGEPTYADDFKGRFAFSLKTSANTAYLQINNLKNEDAATYFCAREPMDYWGQGTSVIVSS
VL: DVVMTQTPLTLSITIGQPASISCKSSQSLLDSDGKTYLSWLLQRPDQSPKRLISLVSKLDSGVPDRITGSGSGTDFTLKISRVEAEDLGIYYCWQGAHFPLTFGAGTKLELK
notes: mouse hybridoma antibody; also called hybridoma 14E3; anti-gremlin1 antibody 14E3
Consider B2, for which the binding result in assay [1] and in assay [2] was “binds” each time.

Source of the values: patent US20240294622A1 (SUZHOU TRANSCENTA THERAPEUTICS, published 2024).
